Experimental data reported in patent publication EP2091973A2.

Key:
Experiment in all cases: cell-based or functional assay
[1] = target: gp120 of HIV strain BR004 (clade C) on virus (HIV-1 (strain BR004))
[2] = target: gp120 of HIV strain SF162 (clade B) on virus (HIV-1 (strain SF162))
[3] = target: gp120 of HIV strain ZA009 (clade C) on virus (HIV-1 (strain 97ZA009))

MAb b12 (antibody)
IC80, HIV neutralization (PBMC hosts, p24) [1]: > 20 µg/mL | IC80, HIV neutralization (PBMC hosts, p24) [2]: 14.1 µg/mL | IC80, HIV neutralization (PBMC hosts, p24) [3]: > 20 µg/mL
